Experimental data published in article PMC2928259 (Biochemistry, 2010).

Molecular target: T1, Cbf5 (Pyrococcus furiosus, UniProt Q7LWY0 1-340)
T1 sequence (looked up): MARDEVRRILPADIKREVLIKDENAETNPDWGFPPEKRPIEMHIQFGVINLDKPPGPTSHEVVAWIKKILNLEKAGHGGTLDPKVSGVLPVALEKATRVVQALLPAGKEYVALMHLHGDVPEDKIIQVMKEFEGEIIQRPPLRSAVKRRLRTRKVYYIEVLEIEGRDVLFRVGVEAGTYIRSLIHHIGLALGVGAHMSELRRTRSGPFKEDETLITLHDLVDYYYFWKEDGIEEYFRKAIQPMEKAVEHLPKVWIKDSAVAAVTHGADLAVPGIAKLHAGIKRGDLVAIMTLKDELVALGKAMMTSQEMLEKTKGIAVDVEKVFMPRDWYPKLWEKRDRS
Assay: crystal structure

- binding result: binds
B1: Nop10 (natural protein, Pyrococcus furiosus)
chain: MRFRIRKCPKCGRYTLKEVCPVCGEKTKVAHPPRFSPEDPYGEYRRRWKREVLGIGRKEK
